The record followed here is PMC7572642 (Journal of molecular biology, 2020).

The data set deals with the molecule itself. Kind of data set: crystal structure.

B1: chicken cone PDE6 GAFab regulatory domain (residues 42–458 of the chicken cone PDE6C catalytic subunit) (domain or fragment, UniProt P52731 42-458, looked up)
chain: GDVKEGVSFKDMSRLEECNILFELLTEIQDEAGSMEKIVHKTLQRLSQLLAADRCSMFICRSRNGIPEVATRLLNVTPTSKFEDNLVNPDKETVFPLDIGIAGWVAHTKKFFNIPDVKKNNHFSDYLDKKTGYTTVNMMAIPITQGKEVLAVVMALNKLNASEFSKEDEEVFKKYLNFISLVLRNHHTSYLYNIESRRSQMLLWSANKVFEELTDIERQFHKALYTIRMYLNCERYSVGLLDMTKEKEFYDEWPIRLGEAEPYKGPKTPDGREVNFYKIIDYILHGKEEIKVIPTPPADHWCLISGLPTYVAENGFICNMMNAPADEYFTFQKGPVDETGWVIKNVLSLPIVNKKEEIVGVATFYNRKDGKPFDEYDEQIIETLTQFLGWSVLNTDTYDKMNKLENRKDIAQEMLMY
B1: the binding result was “binds”.
